Reference: paper PMC8163800, “Extreme parsimony in ATP consumption by 20S complexes in the global disassembly of single SNARE complexes” (Nature Communications, 2021)

Tests used:
[1] = target: SNARE–αSNAP complex on vesicles (rat | bovine), P60881
[2] = substrate: Nc1ncnc2c1ncn2[C@@H]1O[C@H](COP(=O)(O)OP(=O)(O)OP(=O)(O)O)[C@@H](O)[C@H]1O; test: ATPase titration, phosphate release by MESG/PNP (ELIPA kit), Hill fit; type: biochemical, Cricetulus griseus; details: Hill coefficient 0.58 ± 0.09, 5 mM MgCl2, 50 mM HEPES pH 7.4, 50 mM NaCl, 37 °C

rate of ATP hydrolysis of WT NSF hexamers with soluble SNARE complex (300 nM) and αSNAP (1 μM) against free NSF [1]	Binder	K0.5 [2]
24 fold	N-ethylmaleimide sensitive factor (NSF), wild-type hexamer, P18708 1-744 (enzyme) MAGRSMQAARCPTDELSLSNCAVVSEKDYQSGQHVIVRTSPNHKYIFTLRTHPSVVPGSVAFSLPQRKWAGLSIGQEIEVALYSFDKAKQCIGTMTIEIDFLQKKNIDSNPYDTDKMAAEFIQQFNNQAFSVGQQLVFSFNDKLFGLLVKDIEAMDPSILKGEPASGKRQKIEVGLVVGNSQVAFEKAENSSLNLIGKAKTKENRQSIINPDWNFEKMGIGGLDKEFSDIFRRAFASRVFPPEIVEQMGCKHVKGILLYGPPGCGKTLLARQIGKMLNAREPKVVNGPEILNKYVGESEANIRKLFADAEEEQRRLGANSGLHIIIFDEIDAICKQRGSMAGSTGVHDTVVNQLLSKIDGVEQLNNILVIGMTNRPDLIDEALLRPGRLEVKMEIGLPDEKGRLQILHIHTARMRGHQLLSADVDIKELAVETKNFSGAELEGLVRAAQSTAMNRHIKASTKVEVDMEKAESLQVTRGDFLASLENDIKPAFGTNQEDYASYIMNGIIKWGDPVTRVLDDGELLVQQTKNSDRTPLVSVLLEGPPHSGKTALAAKIAEESNFPFIKICSPDKMIGFSETAKCQAMKKIFDDAYKSQLSCVVVDDIERLLDYVPIGPRFSNLVLQALLVLLKKAPPQGRKLLIIGTTSRKDVLQEMEMLNAFSTTIHVPNIATGEQLLEALELLGNFKDKERTTIAQQVKGKKVWIGIKKLLMLIEMSLQMDPEYRVRKFLALLREEGASPLDFD	–
–	free NSF (NSF hexamer) (Cricetulus griseus) (protein, N-terminal His-tag cut by thrombin, pET28a) MAGRSMQAARCPTDELSLSNCAVVSEKDYQSGQHVIVRTSPNHKYIFTLRTHPSVVPGSVAFSLPQRKWAGLSIGQEIEVALYSFDKAKQCIGTMTIEIDFLQKKNIDSNPYDTDKMAAEFIQQFNNQAFSVGQQLVFSFNDKLFGLLVKDIEAMDPSILKGEPASGKRQKIEVGLVVGNSQVAFEKAENSSLNLIGKAKTKENRQSIINPDWNFEKMGIGGLDKEFSDIFRRAFASRVFPPEIVEQMGCKHVKGILLYGPPGCGKTLLARQIGKMLNAREPKVVNGPEILNKYVGESEANIRKLFADAEEEQRRLGANSGLHIIIFDEIDAICKQRGSMAGSTGVHDTVVNQLLSKIDGVEQLNNILVIGMTNRPDLIDEALLRPGRLEVKMEIGLPDEKGRLQILHIHTARMRGHQLLSADVDIKELAVETKNFSGAELEGLVRAAQSTAMNRHIKASTKVEVDMEKAESLQVTRGDFLASLENDIKPAFGTNQEDYASYIMNGIIKWGDPVTRVLDDGELLVQQTKNSDRTPLVSVLLEGPPHSGKTALAAKIAEESNFPFIKICSPDKMIGFSETAKCQAMKKIFDDAYKSQLSCVVVDDIERLLDYVPIGPRFSNLVLQALLVLLKKAPPQGRKLLIIGTTSRKDVLQEMEMLNAFSTTIHVPNIATGEQLLEALELLGNFKDKERTTIAQQVKGKKVWIGIKKLLMLIEMSLQMDPEYRVRKFLALLREEGASPLDFD	9 ± 2 µM
